This series in a line: soluble on expression in E. coli; label from the status in PepcDB or PDB records.
“MGSDKIHHHHHHGGFTGAIADFPTAIHRAVKGQMQTTTDYLNGEQTEYDESVFTGEYHYYYEKLSDDDKLIYRQIYAMMQKRMDGISLNTTDTDNVSRIQQFVLLDNPQFFYIEKSQYTVRNSIIFSPVYNMSESDIDNAISTISGYVSACMAGIDEGASDYDKAVHFYEYVIEHAEYEENSPHNQDMYSAVLGRTVCQGYAMMFKYLCDRAGISSLIVTGTTSDANHAWNMVYLDGAWCAVDCTYGDGDYLGKGISYSWFGVPLDVVKLTRTLDNEDMLPQEASVEDDYYYRNGLYFTSYDLKVLQGMTTSSNYITFKFSDRETYDTACHSLFDKGDYKYLIPTARGGTITYMQEPNSLAVFIHIELGS”: the “soluble on expression in E. coli” value is given as “not soluble”.
To “MKDVTIYHNPRCSKSRETLALVEQQGITPQVVLYLETPPSVDKLKELLQQLGFSDARQLMRTKEDLYKTLNLDDRGLTQDQLLQAMADNPKLIERPIVVTQGKARIGRPPEQVLEILK” belongs “not soluble”; to “MMENYITSFQLRFCPAAYLHLEQLPSLWRSILPYLPQWRDSAHLNAALLDEFSLDTDYEEPHGLGALPLQPQSQLELLLCRLGLVLHGEAIRRCVLASPLQQLLTLVNQETLRQIIVQHELLIGPWPTHWQRPLPTEIESRTMIQSGLAFWLAAMEPQPQAWCKRLSLRLPLATPSEPWLVAESQRPLAQTLCHKLVKQVTPTCSHLFK”, “not soluble”.
As for “MAKTIRDESTASAYWAAVNTFCALKDVHVIADAPVGCYNLAGVAVMDYTDAIPYLENLTPTSLTEREISSSGSSQIVQETIEKLMGSGKQLILVSSAESEMIGSDHQHMLAMKYPSVRFFASDSLGENEWQGRDRALAWLFDQFDDGQPSQIEPGTVSIIGPTYGCFNSPADLAEVKRLVTGAGGRVAHVYPFESKAAEITKLKNSAAIVVMYREFGAALAEKLGRPVLYAPFGIEETDRFIGKIGRLCGTPEQATRFIAEEKRTTLSPVWDLWRGPQSEWFPTIRFGVVASKSYADGIKHVLGDELGMQCLFSLDSAEVDNNAVRKEIVQKQPQFLYGRMPDKIYLAEADAKSRFIPAGFPGPIVRRALGTPFMGHSGVVWLVQEIVNALYDTLFNFLPITRRQQAAAPTKPLKWTPEANAILDGIVRKAPFISQISFGRELKRKAENLAASRGADTVTPDILQQLG”, the “soluble on expression in E. coli” value is on record as “soluble”.
“MGSDKIHHHHHHMNYTQNQKISQITPSTLVIGIDVAKDKHVARAQDDRGLEFGKRLIFENRIHGFELLLEWALRHAKENSKDHIIFGVEPTGHYWLNLAYYLTAKDFDFVLVNPMHVKKSKELDDNSPTKNDTKDAKVISQLIKDGRYSVPNLLDGIYAELREGVKLRDQLIQQLLITEGRIQNIIDRYFPEFFDVFGDWEGKAAFCTLKLFPFPSQIVKMTPEEVLRQWKPFVQRGVGIKRATKLVETAHKSIGITIGSHFAQREMSSLLDQWELFKKQLEELDQELEGVVRTIPGANEMIDITGLGVATVTTVLSEIGDLKKYKHPQQLVNLAGLSLRENSSGKFKGQTTITKRGRSKLRRALYLAIRPLVAHNPTFKALHHYYTKRPDKPLKKQQSLIALCCKLLRVLFVIGQKQCPFDGSKLLQGIPQEKTLQAA”: the “soluble on expression in E. coli” value was “not soluble”.
The same measure for “MEGSQQTITSKQLVRMLKDASRGSKGKGSGEMKFCFLIGAGASISSGIPSGAKLAWDWLQQIKEDCDGEDFEDWKIEIKMPDQHIEERVGEFYPEIYEKRFGHAPETGYDYIRGLMEGREPSLGYLILANIMVREKHNVVITTNFDNLLEDAIRTYTKEKPFIAGHEALADYVPKRSDRPIILKLHRDLFLQPFSDQLNTDILQAAWESILGKFLSDYHLIVLGYGGNDGSLMNYLLKLKNRKPIYWCVRNTDKATSKSLWNTLSPKAKRLLKNDGYLVPIDDFDRFMYDCYAALGYKFLEGIEKIEKPKSIHEILKPNYARIESIQTQLRQLSQTEEELSKESFQSIKSFLPDSWMWILKANQEKDIDKKDKIYREGIAKYPQDANLLGDYADFLCDICHD”: “not soluble”; for “MSLKLGIIGSGKIVHDFLTAIDQINNLDVVAISSTKRSENIAQELAKKYSINKTYTDNDELMSDPDVDTVYVAVPNFLHYQVAKAALEHGKNVICEKPFVDSTNEAKKLKQLADEKNLIIVEAITNIYLENFKRIQREIENIAPIHIVSLNYTQYSSRYDDFLKGKIAPVFDPAKDGGTLMDLNIYNIHLVSALFGLPDKVKYYANMQKGVDTSGILHLSYPDKQAALIAAKDSYVTPRSFIEGEKGSIYIDGSTGELNNFTIEMRDQKPKRYNLNKYSHRMASEFNAFVEMIDNHDKVKADEAFVNTLESMQILTTAKNSEEGHHHHHH”: “soluble”.
Take “MSRIIMLIPTGTSVGLTSVSLGVIRAMERKGVRLSVFKPIAQPRTGGDAPDQTTTIVRANSSTTTAAEPLKMSYVEGLLSSNQKDVLMEEIVANYHANTKDAEVVLVEGLVPTRKHQFAQSLNYEIAKTLNAEIVFVMSQGTDTPEQLKERIELTRNSFGGAKNTNITGVIVNKLNAPVDEQGRTRPDLSEIFDDSSKAKVNNVDPAKLQESSPLPVLGAVPWSFDLIATRAIDMARHLNATIINEGDINTRRVKSVTFCARSIPHMLEHFRAGSLLVTSADRPDVLVAACLAAMNGVEIGALLLTGGYEMDARISKLCERAFATGLPVFMVNTNTWQTSLSLQSFNLEVPVDDHERIEKVQEYVANYINADWIESLTATSERSRRLSPPAFRYQLTELARKAGKRIVLPEGDEPRTVKAAAICAERGIATCVLLGNPAEINRVAASQGVELGAGIEIVDPEVVRESYVGRLVELRKNKGMTETVAREQLEDNVVLGTLMLEQDEVDGLVSGAVHTTANTIRPPLQLIKTAPGSSLVSSVFFMLLPEQVYVYGDCAINPDPTAEQLAEIAIQSADSAAAFGIEPRVAMLSYSTGTSGAGSDVEKVREATRLAQEKRPDLMIDGPLQYDAAVMADVAKSKAPNSPVAGRATVFIFPDLNTGNTTYKAVQRSADLISIGPMLQGMRKPVNDLSRGALVDDIVYTIALTAIQSAQQQ”: the “soluble on expression in E. coli” value is reported as “soluble”.
On to “GPGSMTDFYSLIPSAPKGRFDGIERAHTAEDVKRLRGSVEIKYSLAEMGANRLWKLIHEEDFVNALGALSGNQAMQMVRAGLKAIYLSGWQVAADANTASAMYPDQSLYPANAGPELAKRINRTLQRADQIETAEGKGLSVDTWFAPIVADAEAGFGDPLDAFEIMKAYIEAGAAGVHFEDQLASEKKCGHLGGKVLIPTAAHIRNLNAARLAADVMGTPTLIVARTDAEAAKLLTSDIDERDQPFVDYEAGRTAEGFYQVKNGIEPCIARAIAYAPYCDLIWMETSKPDLAQARRFAEAVHKAHPGKLLAYNCSPSFNWKKNLDDATIAKFQRELGAMGYKFQFITLAGFHQLNYGMFELARGYKDRQMAAYSELQQAEFAAEADGYTATKHQREVGTGYFDAVSLAITGGQSSTTAMKESTETAQFKPAAE”, for which the “soluble on expression in E. coli” value is “soluble”.
For “MYPQQTSAAVGARKMRVVGVVEETHDARSILVEPHPEHIDAFDYRPGQFLTVRVPDVGSGTARCYSLSSSPHVDSTMKFTVKRVAGGHGSNWLCDEIALGDELEVLPPAGTFTVRSLDQSVVLVAGGSGITPVIAIAKSILHAGTGTVLLVYANRDERSVIFGEQLRELGERFGSRFTVIHVLESVQGYLTAPAMSNLIRPFTDRAVYICGPEPLMKLVKAVCSAEGIAPSQVMTERFVSLSTDPFRNPVEDKPSTSDTGVEVSAQDEAAAGDCTVHVSLDGTERTVAWPRSKRLLDALLDAGVEAPFSCREGACSACVCSLTEGEVRLVRNEVLEADDLADGYILACQAEVVTDQISIKY”, the “soluble on expression in E. coli” value is listed as “not soluble”.
The same measure for “GPGSMPKSKRATIVPLTKTRSKTREEKDELINKIRDALDDYTDVYTFELSNIRTNILQQIREERRNDSRLFLGNNKLLMIALGRDDSSSQRPNLHKLSKYLTGSCGLLFTNLPHQDVKEYFKGVSADVFARTGQVATCPLLLRTGPLAQFPHSMFDHLSRLGLPIKLDKGVIVLLRDTTVCEVGDTLTAEAAQLLKLFGIQSAEFKLELTAHWAKGVVKRMSKKKKEEEN”: “soluble”; for “NGGVGVDVELITSINVENDTFIERNFTPQEIEYCSAQPSVQSSFAGTWSAKEAVFKSLGVKSLGGGAALKDIEIVRTNKNAPAVELHGNAKKAAEEAGVTDVKVSISHDDLQAVAVAVSTKK”: “soluble”.
The same measure for “TVRVRLAPSPTGNLHIGTARTAVFNWLYARHRGGKFILRIEDTDRERSRPEYTENILEGLQWLGLTWDEGPYFQSDRLDLYRQAIQTLLDKGLAYYCYCTPEELEALRAEQKAKGQAPRYDNRHRHLTPEEQAAFEAAGRTPVIRFKIEDDRQIEWQDLVRGRVSWQGADLGGDMVIARAAPRGEIGYPLYNLVVVVDDIAMGITDVIRGEDHIGNTPKQILLYEALGATPPNFAHTPLILNSTGQKLSKRDGVTSISDFRAMGYLAPALANYMTLLGWSPPEGVGELFTLDLAAKHFSFERINKAGARFDWDKLNWLNRQYIQQLEPEEFLAELIPLWQGAGYAFDEERDRPWLFDLAQLLQPGLNTLREAIDQGAVFFIPSVTFDSEAMAQLGQPQSATILAYLLEHLPAEPALTVAMGQQLIQQAAKAAGVKKGATMRTLRAALTGAVHGPDLMAAWQILHQRGWDEPRLAAALKQAQTTSLEHHHHHH”: “soluble”.
The same measure for “MSLAQLIFDEEKVTSVIDRIVKRTFQMDFAWDWPGGVAFYGVAEAYEATENEEYINLLKTWVDEQLEDGLPPLSINGVSIGHTLLFLHKVTGDDVYLETAAEMAEYVLHKAPRFGEGILQHTVNAAEYVFPEQAWADTLMMAGLFMLRIGRVMEREDYFEDGLRQFHGHEDVLQDPVTNLYYHAWDNKAQNHLSGIYWGRANGWAALTMAKALPLIEVTHPSFMIIDGSLRDQLSALVRLQDESGLWHTILDDPDSYLEVSASAGIASALMSSGKLYTKYVQKSLAAILDAVEEDGRVSRVSAGTAVMKNAEGYKQVPYKRIQGWGQGLALTFLADVLKTKKRLYQEGHHHHHH”: “soluble”; for “MSTVSGLKRPQSSEKNHRDRVFVRATRGKVQKVVREQYLRNDIPCQSRACPLCRSKLPKDSRGNVLEPILSEKPMFLEKFGHHYLIPDSNIFYHCIDALEHPNNFFDVIILQTVFSEISSKSIPLYNRMKRLCQEKTKRFTPFSNEFFVDTFVERLDDESANDRNDRAIRNAASWFASHLASLGIKIVLLTDDRENARLAAEQGIQVSTLKDYVQYLPDSEILLDMVSAIADAIASKEQVESGTKNVYELHWSMSRLLACIKNGEVHKGLINISTYNYLEGSVVVPGYNKPVLVSGRENLNRAVQGDIVCIQILPQDQWKTEAEEIADDDEDVVVSTAAEPDSARINDLELITKRNAHPTAKVVGILKRNWRPYVGHVDNATIAQSKGGSQQTVLLTPMDRRVPKIRFRTRQAPRLVGRRIVVAIDLWDASSRYPEGHFVRDLGEMETKEAETEALLLEYDVQHRPFPKAVLDCLPEEGHNWKVPADKTHPLWKNRKDFRDKLICSIDPPGCQDIDDALHACVLPNGNYEVGVHIADVTHFVKPNTSMDSEAASRGTTVYLVDKRIDMLPMLLGTDLCSLRPYVERFAFSCIWEMDENANIIKVHFTKSVIASKEAFSYADAQARIDDQKMQDPLTQGMRVLLKLSKILKQKRMDEGALNLASPEVRIQTDNETSDPMDVEIKQLLETNSLVEEFMLLANISVAQKIYDAFPQTAVLRRHAAPPLTNFDSLQDILRVCKGMHLKCDTSKSLAKSLDECVDPKEPYFNTLLRILTTRCMLSAEYFCSGTFAPPDFRHYGLASPIYTHFTSPIRRYADVLAHRQLAAAIDYETINPSLSDKSRLIEICNGINYRHRMAQMAGRASIEYYVGQALKGGVAEEDAYVIKVFKNGFVVFIARFGLEGIVYTKSLSSVLEPNVEYVEDEYKLNIEIRDQPKPQTVQIQMFQQVRVRVTTVRDEHSGKQKVQITLVY”: “soluble”.
For the sequence “MTQIGLYPSALTKPFELSLSAIKSVLEPENPSYSKRVPNCQKCGQHGRKSRLKGHKRSCPFRECPCAKVCVFSNKRSSRVSLE”, the “soluble on expression in E. coli” value is “not soluble”.

Source of the values: the DeepSol protein solubility set.
